Assay results taken from patent US6677124.

How the values were obtained:
[1] = biological target: human brain natriuretic peptide (hBNP) (human); assay: Scatchard plot from the hBNP standard curve of the radioimmunoassay
[2] = biological target: monoclonal antibody BC203; assay: competitive radioimmunoassay: unlabeled hBNP against 125I-labeled Tyr0-hBNP on BC203 (ascites BC203A diluted 42,000-fold), PEG precipitation

human brain natriuretic peptide (hBNP), sequence (peptide): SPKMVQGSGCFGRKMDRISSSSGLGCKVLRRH
human brain natriuretic peptide (hBNP) (human), sequence (peptide, as listed by the source): as the sequence (peptide) above

Substance | Ka [1] [M⁻¹] | 90% inhibitory concentration [2] [ng/mL] | IC50 [2] [µg/mL]
monoclonal antibody BC203 | 1.3e+09 |  | 
human brain natriuretic peptide (hBNP) |  | 1.3 | 0.0118
